{"source": "patent US20040052796A1", "molecular_target": "p185HER-2 (HER-2/neu, erbB-2 receptor tyrosine kinase) (human) (UniProt P04626)", "assay": "method not described; binding to cell surface p185HER-2 (statement in the summary)", "data": [{"substance": "p68HER-2 (herstatin), product of the alternative HER-2 transcript with retained intron 8 (ligand)", "values": [{"measurement": "Kd", "value": 14, "unit": "nM"}]}]}
